The values below come from paper PMC9184547, “Distinct dissociation rates of murine and human norovirus P-domain dimers suggest a role of dimer stability in virus-host interactions” (Communications Biology, 2022).

Series [1] addresses GII.4 Saga P-domain (native, non-deamidated) (human norovirus GII.4 Saga). Description: native MS; 150 mM ammonium acetate pH 7.3, purified GII.4 Saga P-domain, 25 C, also at low protein concentration.
The target of series [2] is T1, MNV CW1 P-domain (MNV-1 P-dimer) (Murine norovirus 1, UniProt Q80J94).
T1 construct: gene ORF2; MBP-His8 fusion from E. coli BL21(DE3), cleaved with HRV3C; MIL(proS)V(proS)A 13C-methyl labelled for NMR
Description: methyl TROSY NMR titration, TITAN global lineshape analysis. It is filed as binding.

For series [3], the target named is T1, MNV CW1 P-domain (MNV-1 P-dimer). Description: differential scanning fluorimetry (SYPRO orange). It is filed as binding. As to conditions: pH 5.3, 20 mM sodium acetate, 100 mM NaCl; 3 µM protein; stabilisation rises with ligand concentration.
The target in series [4] is GII.4 Saga P-domain deamidated at position 373 (iso-aspartate, iD) (human norovirus GII.4 Saga). Description: ion-exchange chromatography of exchanging dimers; 373iD/iD and 373Q/Q dimers mixed 1:1, total 1.24 mg/ml, 75 mM sodium phosphate, 100 M NaCl (so in the source), 0.02% NaN3, pH 7.3, 298 K; aliquots over 38 days on analytical cation exchange chromatography; fraction of mixed dimers fitted to an exponential; dimer to monomers.

Series [5] deals with the molecule itself. Description: SEC-MALS; Superdex 75 10/300 GL, 10-200 uM protein, 20 mM sodium acetate, 100 mM NaCl, pH 5.3.
Series [6] deals with the molecule itself. Description: native MS; 150 mM ammonium acetate pH 5.3, 2-92 uM purified P-domain, 25 C; relative dimer peak area against total protein fitted; dimer to monomers.
Series [7] deals with the molecule itself. Description: NMR titration; 1H,15N TROSY HSQC spectra of [U-2H,15N] labeled P-domain at 24-200 uM protein; intensities of unassigned dimer cross-peaks; 298 K, 20 mM sodium acetate, 100 mM NaCl, pH* 5.3; dimer to monomers.
Series [8] concerns the molecule itself. Description: SEC; analytical Superdex 75 Increase 3.2/300, 20 mM sodium acetate, 100 mM NaCl, pH 5.3, 278 K; 250 nM-270 uM protein; apparent molecular weight against feed concentration fitted, apparent KD; lower limit from the 10x dilution; dimer to monomers.
Series [9] concerns the molecule itself. Description: NMR titration; methyl TROSY (1H,13C HMQC) spectra of MILproSVproSA labeled apo P-domain at six concentrations 12.5-226 uM; global two-dimensional lineshape analysis with TITAN (dimerization model); 298 K, 20 mM sodium acetate-d3, 100 mM NaCl, pH* 5.26 in D2O; dimer to monomers.

For “GII.4 Saga P-domain (native, non-deamidated) (domain or fragment)”, the stoichiometry N in series [1] was determined as 2.
`C[C@H](CCC(=O)NCC(=O)O)[C@H]1CC[C@H]2[C@@H]3[C@H](O)C[C@@H]4C[C@H](O)CC[C@]4(C)[C@H]3CC[C@]12C` [GCDCA, glycochenodeoxycholic acid] had a Kd in series [2] of 10.5 ± 0.5 µM. In addition, the TM entry in series [3] is “thermostability of CW1 P-domains improves considerably with increasing GCDCA concentrations”.
In [4], “GII.4 Saga P-domain point mutant N373Q (domain or fragment)” displayed a dimer half-life time of 127 h and a koff of 1.51e-06 s⁻¹.

B1: MNV-1 (CW1) P-domain (domain or fragment)
chain: TIYRMVDLPVIQPRLCTHARWPAPVYGLLVDPSLPSNPQWQNGRVHVDGTLLGTTPISGSWVSCFAAEAAYKFQSGTGEVATFTLIEQDGSAYVPGDRAAPLGYPDFSGQLEIEVQTETTKTGDKLKVTTFEMILGPTTNADQAPYQGRVFASVTAAASLDLVDGRVRAVPRSIYGFQDTIPEYNDGLLVPLAPPIGPFLPGEVLLRFRTYMRQIDTADAAAEAIDCALPQEFVSWFASNAFTVQSEALLLRYRNTLTGQLLFECKLYNEGYIALSYSGSGPLTFPTDGIFEVVSWVPRLYQLASVGSLATGRMLKQ
notes: Protruding (P)-domain of the major capsid protein VP1 of murine norovirus MNV-1 (CW1); construct truncated at the C-terminus compared to prior work; Monomer-dimer equilibrium in solution; Used unlabeled, [U-2H,15N] labeled or 13C-methyl (MILproSVproSA) labeled; also called MNV CW1 P-domain; MNV.CW1 P-domain; source: E. coli BL21 DE3, purified (Ni-NTA, HRV3C cleavage, Ni-NTA, SEC at pH 5.3)
With B1, the “stoichiometry N” value in series [5] is 2. For the same molecule, the Kd in [6] was 32 µM; in series [7], approximately 31 µM; in [8] it was 4 to 40 µM; in [9], 6.9 µM. Besides, in series [9], the koff is 1.25 s⁻¹. This molecule displayed a kon in [9] of 140000 M⁻¹ s⁻¹.
